This is an account of results in the nanobody polyreactivity screen of Harvey et al. (2022).

The nature of the data set: yeast display, Sf9 membrane polyspecificity reagent, FACS + sequencing; frameworks hold sequencing errors. The method in brief: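 A nanobody's polyreactivity label depends on the gate it was sorted from. Yeast display cells were stained with 10% biotinylated, detergent-solubilized Sf9 membrane reagent for 1 hour at 4 °C, enriched on streptavidin microbeads and sorted by FACS. The low and high (top ~1%) gates were set on anti-HA fluorescence for expression and streptavidin fluorescence for reagent binding.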
Take “QVQLVESGAGLVQAGGSLRLSCAASGRTFYNNAMGWYRQAPGKERELVAAISQRTGRTYYADSVKGRFTISRDNAKNTVYLQMNSLKPEDTAVYYCAARTLSYEYNYWGQGTQVTVSS”: the “polyreactivity (PSR sort gate)” value is reported as “high polyreactivity”.
Consider “QVQLVESGAGLVQAGGSLRLSCAASGRTFYYYAMGWYRQAPGKERELVAAISSNGGSTYADSVKGRFTISRDNAKNTVYLQMNSLKPEDTAVYYCAAEPWWQEGDYWGQGTQVTVSS”, for which the “polyreactivity (PSR sort gate)” value is on record as “high polyreactivity”.
The entry for “QVQLVESGAGLVQAGGSLRLSCAASGSIFVYNDMGWYRQAPGKERELVAAITSSGGSTYYADSVKGRFTISRDNAKKTVYLQMNSLKPEDTAVYYCNVWDRPPTGYDYWGQGTQVTVSS” is “low polyreactivity”.
For “QVQLVESGAGLVQAGGSLRLSCAASGSIFWYNAMGWYRQAPGKERELVAAITSGGTTSYADSVKGRFTISRDNAKNTVYLQMNSLKPEDTAVYYCNADAVPFPTLVTYLYDYWGQGTQVSVSS”, the “polyreactivity (PSR sort gate)” value was “low polyreactivity”.
On to “QVQLVESGAGLVQAGGSLRLSCAASGSIFYVYAMGWYRQAPGKERELVAAISSSAGSTYYADSVKGRFTISRDNAKNTVYLQMNSLKPEDTAVYYCAAKVRYSLRKYYYWGQGTQVTVSS”, for which the “polyreactivity (PSR sort gate)” value is on record as “high polyreactivity”.
Take “QVQLVESGAGLVQAGGSLRLSCAASGSTFAINAMGWYRQAPGKERELVAAISSRGSTNYADSVKGRFTISRDNAKNTVYLQMNSLKPEDTAVYYCAADRVWGTPQAYVPSQFDYWGQGTQVTVSS”: the “polyreactivity (PSR sort gate)” value is “low polyreactivity”.
With “QVQLVESGAGLVQAGGSLRLSCAASGSTFDSYVMGWYRQAPGKERDLVAAISRRGGSTYYADSVKGRFTISRDNAKNSVYLQMNSLKPEDTAVYYCARTVGYRTLLESDSWGQGTQVTVSS” the entry was “high polyreactivity”; with “QVQLVESGAGLVQAGGSLRLSCAASGSTFGINAMGWYRQAHGKEREFVASISWSTGTKYYADSVKGRFTISRDNAKNTVYLQMNSLKAEDTAVYYCAAVCSRFYGLPRYYYCGQGTQVTVSS”, “high polyreactivity”; with “QVQLVESGAGLVQAGGSLRLSCAASGSTFPFYDMGWYRQAPGKEREFVAVISSSGGSTYYADSVKGRFTISRDNAKNTVYLQMNSLKPEDTAVYYCARRYPGRWYDYWGQGTQVTVSS”, “high polyreactivity”.
Consider “QVQLVESGAGLVQAGGSLRLSCAASGSTFSHNAMGWYRQEPGKESELVAAISWSGGGTYADSVKGRFTISRDNAKNTVYLQMNSLIPEDTAVYYCNKVSYPSTSSSWFDYWGKGTQVTVSS”, for which the “polyreactivity (PSR sort gate)” value was “low polyreactivity”.
For “QVQLVESGAGLVQAGGSLRLSCAASGSTFYGYGMGWYRQAPGKERELVAAITGSGDTTYYADSVKGRFTISRDNAKNTVYLQMNSLKPEDTAVYYCNARWHAEYDYWGQGTQVTVSS”, the “polyreactivity (PSR sort gate)” value was “low polyreactivity”.
On to “QVQLVESGAGLVQAGGSLRLSCAPSGRTFGYNAMGWYRQAPGKERELVATISSSTVSTSYADSVKGRFTISRDNAKNTVYLQMNSLKPEDTAVYYCNARSRVSPTERVPYDSWGHGTQVTVSS”, for which the “polyreactivity (PSR sort gate)” value is on record as “low polyreactivity”.
Turning to “QVQLVESGAGLVQAGGSLRLSCAPSGSIFWWYAMVWYRQAPGKERELVAVISGGTSTYYADSVKGRFTISRDNAKNTVYLQMNSLKPEDTAVYYCNADVFSKVSYFRYIEYDYWGQGTQVTVSS”, the “polyreactivity (PSR sort gate)” value is listed as “high polyreactivity”.
For “QVQLVESGAGLVQAGGSLRLSCASSGRTCDFYAMGWYRQAPGKERELVAAISSSCGSTYYADSVKGRFTISRDNAKNTVYLQMNSLKPEDTAVYYCAKDGRVHSPYDYWGQGTQVTVSS”, the “polyreactivity (PSR sort gate)” value is given as “low polyreactivity”.
Turning to “QVQLVESGAGLVQAGGSLRLSCSASGRTFPGYAMGWYRQAPGKERELVATISSADSTNYADSVKGRFTISRDNGKNTVYLQMNSLKAEDTAVYYCAKRYGRNGAAAQYTGGYRYDYWGQGTQVSVSS”, the “polyreactivity (PSR sort gate)” value was “low polyreactivity”.
For the sequence “QVQLVESGARLVQAGGSLRLSCAASGRTFSTYTMGWYRQAPGKERELVAAITSSGGGTYYADSVKGRFTISRDTAKNTVFLQMNSLKPEDTAVYYCATVRTYRPPVRRGYWGQGTQVTVSS”, the “polyreactivity (PSR sort gate)” value is “high polyreactivity”.
“QVQLVESGAVLVQAGGSLRLSCAASGGTFSGYTMGWYRQAPGKERELVAAITRSGSSTYYADSVKGRFTISRDNAKHTVYLQMNSLKPEDTAVSYCAATYPTSSSSYYNRYYWGQGTQVTVSS”: the “polyreactivity (PSR sort gate)” value is recorded as “high polyreactivity”.
For the sequence “QVQLVESGEGLVQAGGSLRLSCAASGRTFDRNTMGWYTQAPGKERELVAAISSSGGSTYYADSVKGRFTISRDNAKNTVYLQMNSLKPEDTAVYYCAVRSRQYFRYGYDYWGQGTQVTVSS”, the “polyreactivity (PSR sort gate)” value is on record as “high polyreactivity”.
The entry for “QVQLVESGEGLVQAGGSLRLSCAASGSTFTYNAMGWYRHAPGKERELVAAIDWDGDTTYYADSVKGRFTISRDNAKNTVYLQMNSLKPEDTAVYYCAARPKYPYYARYDYWGQGTQVTVSS” is “high polyreactivity”; for “QVQLVESGGAFVQAGGTLRLICAASGRIFLYYAMGWYRHAPGKERELFAAIRISGGSTYYADSVKGRFTISRDNAKNTVYLQMNSLNAVDPAVYYCNADHKTIYPKYRGRFYYWGQGTQVTVTS” it is “high polyreactivity”; for “QVQLVESGGAIVQAGGSLRLICAASGSIFYIYAMGWYRQAPGKERELVASITFSGDITYYADSVKGRFTISRDNAKYTVYLQMNSLKPEDTAVYYCAADYHEQSYAVTYDYWGQGTKVTVSS” it is “low polyreactivity”.
For “QVQLVESGGALFQAGGSLRLSCAASGRIFTIYASRWYRQAPGKATELVATISRRGGSTYYADSVKGRFTISRDNAKNNVYLQMNSLKPEVSAVYYCAADSVITWWAYDYWGQGTQVTVSS”, the “polyreactivity (PSR sort gate)” value is given as “high polyreactivity”.
As to “QVQLVESGGALVQAGGRLRLSCAASGLTLHRYTMGWYRQAPGKERELVAVITYGGGNTYYADSVKGRFTISRDNAKNTVYLQMNSLKPEDNAVYYCAARYPPFYWYDYWGQGTQVSVSS”, the “polyreactivity (PSR sort gate)” value is “low polyreactivity”.
For “QVQLVESGGALVQAGGSIRISCAASGSIFRDYAMGWSRQAPGKERELVAVISIAGRTNYADSVKGRFTISRDNAKNTVYLQMKRLKPEDTAVYYCAADSAWYGYDYWGQGTQVTVSS”, the “polyreactivity (PSR sort gate)” value is listed as “low polyreactivity”.
Take “QVQLVESGGALVQAGGSLLLSCAASGSIFQPYAMGWYRQAPGKERELVAAITNGGSTYYADSVKGRFTISRDNAKNTVYLQMNSLNPEDTAVYYFAADVQSSHVYDYWGQGTQVTVSS”: the “polyreactivity (PSR sort gate)” value is reported as “low polyreactivity”.
Regarding “QVQLVESGGALVQAGGSLRLSCAASAITYRYYAMGWNRQAPGKERELVATITRSGGSTYYADSVKGRFTISRDNAKNTVYLQMNSLKPEDTAVYYCAKGLYSTRYYYWGQGTQVTVSS”, the “polyreactivity (PSR sort gate)” value is given as “high polyreactivity”.
The entry for “QVQLVESGGALVQAGGSLRLSCAASGFIFYSYAMGWYRHAPGKETELVAAITEDGDSTYYADSVKGRFTISRDNAKNTVYLQMNSLKPEDSAVYYCNTDLTFNGTSGDYDYWGQGTLVTVSS” is “low polyreactivity”; for “QVQLVESGGALVQAGGSLRLSCAASGNTFQRYTMGWYRQAPGKERELVAAITWSGGNTYYADSVKGRFTISRDNAKNSVYLQMNSLKPEDTAVYDCNADYPTTAYDYWGQGTQVTVSS” it is “low polyreactivity”.
The entry for “QVQLVESGGALVQAGGSLRLSCAASGRIFRGYAMGWYRQAPGKERELVAAISSRGSRTYYADSVKGPFTISRDNAKNTVYLQMNSLKPEDTAVYYCAADVPGVTTSYAPYDSEYWGQGSQVTVSS” is “high polyreactivity”; for “QVQLVESGGALVQAGGSLRLSCAASGRIFWDYVMGWYRQAPGKEREFVAAISLDGNITYYADSVKGRFTISRDNAKNTVYLQMNSLKPEDTAVFYCAADQYFFFRARGYDYWGQGTQVTVSS” it is “low polyreactivity”; for “QVQLVESGGALVQAGGSLRLSCAASGSIFDDNAMGWYRQAPGKERELVAAITGSGGRTYYADSVKGRFTISRDNAQNTVDLQMNSLKPEDTAVYYCAAQGAYNYFNAWYGYEYWGQGTQVTVSS” it is “high polyreactivity”.
On to “QVQLVESGGALVQAGGSLRLSCAASGSIFGFYMGWYRQAPGKERELVAAISGSGGNTYYADSVKGRFTISRDNAKNTVYLQMNSLKPEDTSVYYCAAERWDLWLLYDYWGQGTQVTVSS”, for which the “polyreactivity (PSR sort gate)” value is reported as “high polyreactivity”.
As for “QVQLVESGGALVQAGGSLRLSCAASGSIFIHYAMGWSRQAPGKERELVAAISRTGSTYYADSVKGRFTISRDNAKNTVYLQMNSLKPLDTAVYYCAKRISTRRYDFWGQGTQVTVSS”, the “polyreactivity (PSR sort gate)” value was “low polyreactivity”.
The entry for “QVQLVESGGALVQAGGSLRLSCAASGSIFLFNTMGWYRQAPGKETELVAVISGGGITYYADSVKGRFTISRDNAKNTVYLQMNSLKPEDTAVYYCAADGGYWSQYDYWGQGTQVTVSS” is “low polyreactivity”.
Turning to “QVQLVESGGALVQAGGSLRLSCAASGSIFSEYAMGWYRQAPGKERELVAAISRSGGTTYYADSVKGRFSISRDNAKNTVYLQMNSLKPEDTAVYYCAARYFRGSYPMGYWGQGTQVTVSS”, the “polyreactivity (PSR sort gate)” value is on record as “high polyreactivity”.
Turning to “QVQLVESGGALVQAGGSLRLSCAASGSIFTGYAMGWYRQAPGKERELVAAISSRGGSTYYADSVKGRFTISRDNATNTVYLQMNSLKPEDTAVYYCNAVYSGRFLRRDYWGQGTQVTVSS”, the “polyreactivity (PSR sort gate)” value is “high polyreactivity”.
As for “QVQLVESGGALVQAGGSLRLSCAASGSIFVSNAMGWYRQAPGKERELVAAISQSGGSTYYADSVKGRFTISRDNAKNTVYLQMNSLKPEDTAVYYCATPIRSGFRIYDYWGQGTQVNVSS”, the “polyreactivity (PSR sort gate)” value is “low polyreactivity”.
Turning to “QVQLVESGGALVQAGGSLRLSCAASGSTFAYNAMGWYRQAPVKERELVAAITWNGGDTYYADSVKGRFTISRDNAKNTVYLQMNSLKPEDTAVYYCAAEDTYYRDSDYWGQGTQVTVSS”, the “polyreactivity (PSR sort gate)” value is “low polyreactivity”.
With “QVQLVESGGALVQAGGSLRLSCAASGSTFFKYGMGWYRQAPGKERELDATISSRGGNTSYADSVKGRFTISRDNAKNTVYLQMNSLKPEDTAVYYCNAGGDEPVYGSGYDYWGQGTQVTVSS”, the “polyreactivity (PSR sort gate)” value was “low polyreactivity”.
With “QVQLVESGGALVQAGGSLRLSCAASGSTFKVYAMGWYRQAPGKERELVAAISFSGGTTYYADSVNGRFTISRDYAKNTVSLQRNSLKPEDTAVFYCAADGSTWYSYYYWGLGTQVTVSS” the entry was “high polyreactivity”; with “QVQLVESGGALVQAGGSLRLSCAASGSTFLGYTMGWYRQAPGKERELVAAITSSGGRTYYADSVKGRFTISRDNAKYTVYLQMNSLIPEDTAVYYCATREYYPYSTRYSISYDYWGQGTQVTVSS”, “high polyreactivity”.
